Test [1] has as its target His-tagged human FcγRIIA (H131) (human) (UniProt P12318). As to the kind of experiment: SPR steady-state, His-captured receptor, 25 C.
The target in test [2] is His-tagged cynomolgus FcγRIIIA (cynomolgus) (UniProt Q8SPW2). As to the kind of experiment: SPR steady-state, His-captured receptor, 25 C.
For test [3], the target named is His-tagged cynomolgus FcγRIIA (cynomolgus). Kind of test: SPR steady-state, His-captured receptor, 25 C.
In test [4] the target is His-tagged human FcγRIIIA (V176) (human) (UniProt P08637). Kind of test: SPR steady-state, His-captured receptor, 25 C.
Test [5] deals with His-tagged cynomolgus FcγRIIB (cynomolgus). As to the kind of experiment: SPR steady-state, His-captured receptor, 25 C.
For test [6], the target named is His-tagged human FcγRIIA (R131) (human) (UniProt P12318). As to the kind of experiment: SPR steady-state, His-captured receptor, 25 C.
The target in test [7] is His-tagged human FcγRIIB (human) (UniProt P31994). Kind of test: SPR steady-state, His-captured receptor, 25 C.
Test [8] deals with His-tagged human FcγRIIIA (F176) (human) (UniProt P08637). Kind of test: SPR steady-state, His-captured receptor, 25 C.
The target of test [9] is His-tagged human FcγRI (human) (UniProt P12314). Kind of test: SPR (Biacore T200), His-tagged receptor captured by anti-penta-His, antibody injected, 25 C. (Surface plasmon resonance follows binding to a sensor surface in real time, without labels.)
In test [10] the target is His-tagged human FcγRIIIB (human) (UniProt O75015). As to the kind of experiment: SPR steady-state, His-captured receptor, 25 C.

As usually defined, the Kd is a measure of binding affinity in units of concentration. A word on the koff: it is the first-order rate constant of dissociation. A lower koff goes with slow dissociation. As a reminder, the kon is a measure of how fast the partners come together.

Chain of His-tagged human FcγRI (human) (P12314 16-288 limits assumed): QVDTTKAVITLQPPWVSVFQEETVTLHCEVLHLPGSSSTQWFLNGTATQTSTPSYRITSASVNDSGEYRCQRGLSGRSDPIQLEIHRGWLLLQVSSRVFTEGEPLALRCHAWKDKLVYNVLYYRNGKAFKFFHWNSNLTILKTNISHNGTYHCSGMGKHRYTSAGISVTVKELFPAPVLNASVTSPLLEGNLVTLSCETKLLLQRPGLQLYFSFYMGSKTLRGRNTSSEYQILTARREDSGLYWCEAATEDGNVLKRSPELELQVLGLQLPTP
Chain of His-tagged human FcγRIIA (H131) (human) (P12318 36-218 limits assumed): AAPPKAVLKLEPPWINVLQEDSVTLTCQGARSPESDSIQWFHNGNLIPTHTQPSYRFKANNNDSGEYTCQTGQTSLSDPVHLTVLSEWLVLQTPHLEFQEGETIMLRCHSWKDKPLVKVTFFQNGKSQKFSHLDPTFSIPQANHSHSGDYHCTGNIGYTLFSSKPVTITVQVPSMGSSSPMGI
Chain of His-tagged cynomolgus FcγRIIIA (cynomolgus) (Q8SPW2 17-208 limits assumed): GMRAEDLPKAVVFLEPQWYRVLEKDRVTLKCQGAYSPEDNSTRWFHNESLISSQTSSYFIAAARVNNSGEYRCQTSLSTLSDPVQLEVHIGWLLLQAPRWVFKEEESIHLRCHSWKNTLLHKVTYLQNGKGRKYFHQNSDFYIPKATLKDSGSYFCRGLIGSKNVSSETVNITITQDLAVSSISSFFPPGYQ
Chain of His-tagged human FcγRIIIA (F176) (human) (P08637 17-208 limits assumed): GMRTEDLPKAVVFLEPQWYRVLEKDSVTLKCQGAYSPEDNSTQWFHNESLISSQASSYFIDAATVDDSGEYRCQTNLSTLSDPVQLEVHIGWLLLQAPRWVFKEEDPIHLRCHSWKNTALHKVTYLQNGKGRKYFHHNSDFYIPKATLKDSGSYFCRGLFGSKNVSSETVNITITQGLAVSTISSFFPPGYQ
Chain of His-tagged human FcγRIIIA (V176) (human) (P08637 17-208 F176V limits assumed): as the sequence (P08637 17-208 limits assumed) above, with F160V counted along it
Chain of His-tagged human FcγRIIB (human) (P31994 46-217 limits assumed): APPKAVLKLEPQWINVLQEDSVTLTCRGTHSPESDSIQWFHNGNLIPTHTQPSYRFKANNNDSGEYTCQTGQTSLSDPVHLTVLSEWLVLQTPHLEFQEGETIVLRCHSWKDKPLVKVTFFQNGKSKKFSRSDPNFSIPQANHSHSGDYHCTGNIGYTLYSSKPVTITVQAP
Chain of His-tagged human FcγRIIA (R131) (human) (P12318 36-218 H167R limits assumed): as the sequence (P12318 36-218 limits assumed) above, with H132R counted along it
Chain of His-tagged human FcγRIIIB (human) (O75015 17-200 limits assumed): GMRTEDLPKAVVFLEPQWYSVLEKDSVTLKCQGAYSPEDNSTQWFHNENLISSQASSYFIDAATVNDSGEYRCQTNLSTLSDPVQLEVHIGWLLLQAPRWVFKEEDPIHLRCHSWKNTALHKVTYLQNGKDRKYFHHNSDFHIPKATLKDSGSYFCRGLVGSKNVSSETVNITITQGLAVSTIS

Regarding “Wild-type IgG4 "CPPC" Isotype Control (antibody)”, the Kd in test [1] worked out at 12 µM; in test [2] it was 5.8 µM; in [3], 19.3 µM; in test [4], 10 µM; in [5], 9.6 µM; in [6], 10 µM. Further, the Kd in [7] amounted to 9.8 µM; in [8], 26 µM; in [9], 0.0139 µM. For the same substance, the T1/2 in [9] came to 5 min. The substance also gave a koff in [9] of 0.00236 s⁻¹. Besides, in test [9], the kon was 171000 M⁻¹ s⁻¹.

Consider “Wild-type IgG1 Isotype Control (antibody)”, for which the Kd was 1.1 µM in test [1]; 2.3 µM in test [10]; 0.6 µM in [2]; 4.2 µM in test [3]; 1.5 µM in test [4]; 4.2 µM in [5]. Further, the Kd turned out to be 1.3 µM in test [8] and 0.0043 µM in test [9]. In test [9], this substance showed a T1/2 of 15 min.

The values above are taken from US20180371090A1.
